According to patent publication US20230129258A1 (Bicycle, published 2023):
Starred links: 1 amine or outer side, 2 acyl side, 3 side chain; linkers in the order of their positions; H or OH if unused. Positions of bridges follow the written chain, without caps; N, C: chain ends. Non-standard residues stand in square brackets, D forms with d. Chains are numbered I, II in the order given. No end group written: not given here. *: point of attachment. TATA = O=C(CC[*:1])N1CN(C(=O)CC[*:2])CN(C(=O)CC[*:3])C1; Dip = N[C@H](C(=O)O)C(c1ccccc1)c1ccccc1; 1Nal = N[C@@H](Cc1cccc2ccccc12)C(=O)O; Hyp = O=C(O)[C@@H]1C[C@@H](O)CN1; hArg = N=C(N)NCCCC[C@H](N)C(=O)O; tBuAla = CC(C)(C)C[C@H](N)C(=O)O; Cysteamide = C(CS[*:3])N[*:1]; Cba = N[C@@H](CC1CCC1)C(=O)O; dK(PYA) = not defined here; Nle = CCCC[C@H](N)C(=O)O; Pent4ynoyl = C#CCCC(=O)*; Mpa = O=C(O)CCS

B1: BCY13282 (peptide)
peptide 1: ADC[Hyp]LVNPLCLEP[dD]WTC
peptide 2: Ac-C[tBuAla]PE[dK](Pent4ynoyl)PYCFADPY[Nle]CA
modifications: linker I:3-I:10-I:17, II:1-II:8-II:15 via TATA (inferred); not fully specified (N-terminus, bridges); also: 1:2 complex: two BCY8928 chains on the linker
B2: BCY13343 (peptide)
peptide 1: C[Hyp]LVNPLCL[Dip]PDWTC
peptide 2: [Mpa][tBuAla]PE[dK(PYA)]PYCFADPY[Nle]C
modifications: linker I:1-I:8-I:15, II:1-II:8-II:15 via TATA; not fully specified (some residues); reading uncertain; also: 1:2 complex: two copies of chain 2 (BCY12353) on the branched linker, linker at chain B 5 to a chain's N-terminus via N-(acid-PEG3)-N-bis(PEG3-azide)
B3: BCY13341 (peptide)
peptide 1: C[Hyp][Cba]VNPLCL[Dip]P[dD]WTC[dA]
peptide 2: [Mpa][tBuAla]PE[dK(PYA)]PYCFADPY[Nle]C
modifications: linker I:1-I:8-I:15, II:1-II:8-II:15 via TATA; reading uncertain; also: linker at chain B 5 to a chain's N-terminus via N-(acid-PEG3)-N-bis(PEG3-azide)
B4: BCY12978 (peptide)
peptide 1: A[hArg]EC[Hyp]LVNPLCLHP[dE]W[hArg]C
peptide 2: Ac-C[tBuAla]PE[dK](Pent4ynoyl)PYCFADPY[Nle]CA
modifications: linker I:4-I:11-I:18, II:1-II:8-II:15 via TATA (inferred); not fully specified (bridges); also: chain 1 N-terminus and chain 2 dLys(PYA) joined through N-(acid-PEG3)-N-bis(PEG3-azide) linker
B5: BCY13273 (peptide)
peptide 1: C[Hyp]LVNPLCL[1Nal]PDWTC
peptide 2: Ac-C[tBuAla]PE[dK](Pent4ynoyl)PYCFADPY[Nle]CA
modifications: linker I:1-I:8-I:15 via TATA; linker II:1-II:8-II:15 via TATA (inferred); not fully specified (some residues, N-terminus); also: linker joins chain 1 to two chain 2 copies via PYA triazoles
B6: BCY13049 (peptide)
peptide 1: C[Hyp]LVNPLCLEP[dD]WTC[dA]
peptide 2: Ac-C[tBuAla]PE[dK](Pent4ynoyl)PYCFADPY[Nle]CA
modifications: linker I:1-I:8-I:15, II:1-II:8-II:15 via TATA (inferred); not fully specified (N-terminus); also: linker joins chain 1 to two chain 2 copies via PYA triazoles
B7: BCY13053 (peptide)
peptide 1: C[Hyp][Cba]VNPLCL[Dip]P[dD]WTC[dA]
peptide 2: Ac-C[tBuAla]PE[dK](Pent4ynoyl)PYCFADPY[Nle]CA
modifications: linker I:1-I:8-I:15 via TATA; linker II:1-II:8-II:15 via TATA (inferred); not fully specified (N-terminus, bridges); also: 1:2 complex: two copies of chain 2 (BCY8928) on the branched linker
B8: BCY13280 (peptide)
peptide 1: [dA]EDC[Hyp]LVNPLCLEP[dD]WTC
peptide 2: Ac-C[tBuAla]PE[dK](Pent4ynoyl)PYCFADPY[Nle]CA
modifications: linker I:4-I:11-I:18, II:1-II:8-II:15 via TATA (inferred); not fully specified (N-terminus, bridges); also: 1:2 complex: two copies of chain 2 (BCY8928) on the branched linker
B9: BCY13274 (peptide)
peptide 1: Ac-C[Hyp]LVNPLCL[Dip]P[dD]WTC[dK]
peptide 2: Ac-C[tBuAla]PE[dK](Pent4ynoyl)PYCFADPY[Nle]CA
modifications: linker I:1-I:8-I:15 via TATA; linker II:1-II:8-II:15 via TATA (inferred); not fully specified (bridges); also: linker N-(acid-PEG3)-N-bis(PEG3-azide) on C-terminal dK of chain 1, joins two chain 2 copies via PYA triazoles
B10: BCY13281 (peptide)
peptide 1: AADCXLVNPLCLEPDWTC
peptide 2: CXPEXPYCFADPYXCA
modifications: not fully specified; BCY8928: Ac-(SEQ ID NO: 11)-A; TATA; linker at dLys(PYA)4; BCY13127: [dA]-[dA]-D-(SEQ ID NO: 35); TATA; linker at N-terminus
B11: BCY13048 (peptide)
peptide 1: C[Hyp]LVNPLCL[Dip]P[dD]WTC
peptide 2: Ac-C[tBuAla]PE[dK](Pent4ynoyl)PYCFADPY[Nle]CA
modifications: linker I:1-I:8-I:15 via TATA; linker II:1-II:8-II:15 via TATA (inferred); not fully specified (N-terminus, bridges); also: 1:2 complex: two copies of chain 2 (BCY8928) on the branched linker
B12: BCY10919 (peptide)
peptide 1: CPXDCMXDWSTPXWC
peptide 2: CXPEAPYCFADPYXCX
modifications: not fully specified; BCY11014: Ac-(SEQ ID NO: 6)-Dap(PYA); TATA; linker at C-term Dap(PYA); BCY11015: [PYA]-(SEQ ID NO: 1); TATA; linker at N-term PYA
B13: BCY11027 (peptide)
peptide 1: CPXDCMXDWSTPXWC
peptide 2: CXPEXPYCFADPYXCA
modifications: not fully specified; BCY8928: Ac-(SEQ ID NO: 11)-A; TATA; linker at dLys(PYA)4; BCY11015: [PYA]-(SEQ ID NO: 1); TATA; linker at N-term PYA
B14: BCY11022 (peptide)
peptide 1: CPXDCMXDWSTPXWC
peptide 2: CXPEXPYCFADPYXCA
modifications: not fully specified; BCY8928: Ac-(SEQ ID NO: 11)-A; TATA; linker at dLys(PYA)4; BCY11016: [PYA]-[B-Ala]-(SEQ ID NO: 1); TATA; linker at N-term PYA
B15: BCY10918 (peptide)
peptide 1: CPXDCMXDWSTPXWC
peptide 2: CXPEXPYCFADPYXCA
modifications: not fully specified; BCY8928: Ac-(SEQ ID NO: 11)-A; TATA; linker at dLys(PYA)4; BCY11015: [PYA]-(SEQ ID NO: 1); TATA; linker at N-term PYA
B16: BCY12485 (peptide)
peptide 1: CPXDCMXDWSTPXWC
peptide 2: CXPEXPYCFADPYXC
modifications: not fully specified; BCY12149: Ac-(SEQ ID NO: 63); TATA; linker at dLys(PYA)4; BCY8116: SEQ ID NO: 1; TATA; linker at N-terminus
B17: BCY12586 (peptide)
peptide 1: CPXDCMXDWSTPXWC
peptide 2: CXPEXPYCFADPYXX
modifications: not fully specified; BCY12352: Ac-(SEQ ID NO: 69), [Cysam] third reactive group; TATA; linker at dLys(PYA)4; BCY8116: SEQ ID NO: 1; TATA; linker at N-terminus
B18: BCY12588 (peptide)
peptide 1: CP[1Nal]DCM[hArg]DWSTP[Hyp]WC
peptide 2: [Mpa][tBuAla]PE[dK](Pent4ynoyl)PYCFADPY[Nle][Cysteamide]
modifications: linker I:1-I:5-I:15, II:1-II:8-II:15 via TATA; not fully specified (some residues); also: chain 2 present twice on linker, Nectin-4:CD137 1:2, linker at chain B 5 to a chain's N-terminus via N-(acid-PEG3)-N-bis(PEG3-azide)
B19: BCY12587 (peptide)
peptide 1: CP[1Nal]DCM[hArg]DWSTP[Hyp]WC
peptide 2: [Mpa][tBuAla]PE[dK](Pent4ynoyl)PYCFADPY[Nle]C
modifications: linker I:1-I:5-I:15, II:1-II:8-II:15 via TATA; not fully specified (some residues); also: chain 2 present twice on linker, Nectin-4:CD137 1:2, linker at chain B 5 to a chain's N-terminus via N-(acid-PEG3)-N-bis(PEG3-azide)
B20: BCY11385 (peptide)
peptide 1: CPXDCMXDWSTPXWC
peptide 2: CXPEAPYCFADPYXCX
modifications: not fully specified; BCY11014: Ac-(SEQ ID NO: 6)-Dap(PYA); TATA; linker at C-term Dap(PYA); BCY8116: SEQ ID NO: 1; TATA; linker at N-terminus
B21: BCY12484 (peptide)
peptide 1: CPXDCMXDWSTPXWC
peptide 2: CXEEXPYCFADPYXC
modifications: not fully specified; BCY12143: Ac-(SEQ ID NO: 64); TATA; linker at dLys(PYA)4; BCY8116: SEQ ID NO: 1; TATA; linker at N-terminus
B22: BCY12590 (peptide)
peptide 1: CP[1Nal]ECM[hArg]EWSTP[Hyp]WC
peptide 2: Ac-C[tBuAla]PE[dK](Pent4ynoyl)PYCFADPY[Nle]CA
modifications: linker I:1-I:5-I:15, II:1-II:8-II:15 via TATA; not fully specified (some residues, bridges); also: chains joined via N-(acid-PEG3)-N-bis(PEG3-azide) linker, triazole at dLys(PYA)
B23: BCY11021 (peptide)
peptide 1: CPXDCMXDWSTPXWC
peptide 2: ACIEEXQYCFADPYXCA
modifications: not fully specified; BCY7744: Ac-A-(SEQ ID NO: 12)-A; TATA; linker at dLys(PYA)4; BCY11016: [PYA]-[B-Ala]-(SEQ ID NO: 1); TATA; linker at N-term PYA
B24: BCY12486 (peptide)
peptide 1: CPXDCMXDWSTPXWC
peptide 2: CXPEXPYCFANPYXC
modifications: not fully specified; BCY12147: Ac-(SEQ ID NO: 65); TATA; linker at dLys(PYA)4; BCY8116: SEQ ID NO: 1; TATA; linker at N-terminus

target: T1, CD137 on Jurkat reporter cells (Promega kit CS196005) (UniProt Q07011 24-255, limits assumed); assay: cell-based or functional assay
T1 sequence (Q07011 24-255 limits assumed): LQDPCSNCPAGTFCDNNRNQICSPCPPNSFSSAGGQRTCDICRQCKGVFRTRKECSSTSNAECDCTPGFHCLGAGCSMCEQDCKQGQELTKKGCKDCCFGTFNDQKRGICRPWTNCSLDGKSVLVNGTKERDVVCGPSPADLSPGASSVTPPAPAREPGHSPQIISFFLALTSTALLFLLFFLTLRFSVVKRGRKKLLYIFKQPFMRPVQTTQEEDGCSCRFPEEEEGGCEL

Row | Binder | EC50 (nM), PC3 co-culture | Emax (fold induction over background), PC3
1 | B1 | 0.22 nM | 40 fold over background
2 | B2 | 0.11 nM | 44 fold over background
3 | B3 | 0.19 nM | 49.1 fold over background
4 | B4 | 0.05 nM | 78.1 fold over background
5 | B5 | 0.13 nM | 51.3 fold over background
6 | B6 | 0.3 nM | 46 fold over background
7 | B7 | 0.1 nM | 40.3 fold over background
8 | B8 | 0.19 nM | 38.1 fold over background
9 | B9 | 0.19 nM | 47.4 fold over background
10 | B10 | 0.17 nM | 35.6 fold over background
11 | B11 | 0.09 nM | 48.4 fold over background

target: T1, CD137 on Jurkat reporter cells (Promega …); assay: cell-based or functional assay; remark: another data set of the same source

Row | Binder | EC50 (nM), HT1376 co-culture | Emax (fold induction over background), HT1376
12 | B12 | 0.19 nM | 62 fold over background
13 | B13 | 0.18 nM | 
14 | B14 | 0.2 nM | 66 fold over background
15 | B15 | 0.16 nM | 

target: T1, CD137 on Jurkat reporter cells (Promega …); assay: cell-based or functional assay; remark: another data set of the same source

Row | Binder | Fold improvement in EC50 over BCY10000 on same plate, NCI-H292 | Fold improvement in Emax over BCY10000 on same plate, NCI-H292
16 | B16 | 3.82 fold | 2.18 fold
17 | B17 | 1.9 fold | 3.79 fold
18 | B18 | 0.72 fold | 3.2 fold
19 | B19 | 4.2 fold | 2.9 fold
20 | B20 | 9.35 fold | 1.28 fold
21 | B21 | 5.46 fold | 1.86 fold
22 | B22 | 5.5 fold | 2.73 fold
23 | B23 | 9.63 fold | 4.42 fold
24 | B24 | 0.25 fold | 1.73 fold
